# Assay results published in paper PMC4957108.
# Tests used:
# [1] = target: GST-CagA-1CM^W1 (Helicobacter pylori strain 26695) (UniProt P55980); assay: pull-down; quantitative GST pull-down: GST-CagA on beads in a range of concentrations, fixed low concentration of PAR1b (39–364)-FLAG, GST-binding buffer with 0.01% Triton-X, 20 min at 4 °C, unbound PAR1b in the supernatant quantified, binding to GST control subtracted; apparent KD
# [2] = target: GST-CagA-1CM^W2 (Helicobacter pylori strain 26695) (UniProt P55980); assay: as above
# [3] = target: GST-CagA-1CM^E (Helicobacter pylori strain 26695) (UniProt P55980); assay: as above
# [4] = target: CagA-C1164S (Helicobacter pylori strain 26695) (UniProt P55980); assay: AUC; sedimentation velocity, 20 °C, 10 mM HEPES pH 7.7, 150 mM NaCl, 1 mM EDTA; 5.5 μM CagA-CS, 11 μM PAR1b (39–364), alone or mixed; c(s) by SEDFIT
Substance,Kd [1] [µM],Kd [2] [µM],Kd [3] [µM],stoichiometry N (PAR1b per CagA) [4]
PAR1b (39–364)-FLAG (from UniProt Q7KZI7-14 39-364) (domain or fragment),0.0903,0.106,0.0464,–
PAR1b (39–364) (from UniProt Q7KZI7-14 39-364) (domain or fragment),–,–,–,2
